According to patent US12098206B2, “PDGF receptor antibody and use thereof” (Seoul National University R&DB Foundation, priority 2018, dated 2024):
Like-named read-outs stand apart in the source and are kept apart here.

Assays:
[1] = rats; cited from earlier work
[2] = persons treated with up to 1,800 mg for 4 consecutive days; cited from earlier work
[3] = mice; conventional studies; cited from earlier work
NIH3T3 cells [4] = assay: cells; type: cell-based, mouse; conditions: for IC50: Mus musculus, NIH3T3, 72 h, NIH3T3 cells, 72 hours; for toxicity with the addition of mPDGF-BB: complex with cot-duo or cot-duo-cot; for toxicity with the addition of mPDGF-BB / toxicity compared to control anti-HER2 x cotinine scFv-Cκ-scFv: NIH3T3, FIG. 5; for toxicity compared to control anti-HER2 x cotinine scFv-Cκ-scFv: complex with cotinine-duocarmycin, with or without mPDGF-BB
Protocol: NIH3T3 cells were added to 50 μL of DMEM supplemented with 10% FBS and 1% penicillin/streptomycin, placed in a 96-well plate (CLS3595, Corning) and incubated overnight in 5% CO2 at 37° C. incubator. In each well containing 50 μL of cells, 50 μL of 50 anti-PDGFR-β x cotinine scFv-Cκ-scFv fusion protein (25.6 pM-2 μM) complexed with cot-duo or cot-duo-cot obtained in Experimental Example 10 was added and incubated for 72 hours in 5% CO2 at 37° C. incubator. To test mPDGF-BB on the toxic effect of the bispecific antibody of scFv-Cκ-scFv and the cotinine-duocarmycin complex, mPDGF-BB (2 nM) was added together with 50 μL of the bispecific antibody scFv-Cκ-scFv and the cotinine-duocarmycin complex. The mixed complexes were added to 50 μL of NIH3T3 cells.
The bispecific antibody of anti-HER2 x cotinine scFv-Cκ-scFv was used as a control. After 72 hours of incubation in the cells, 100 μL of Cell Titer-Glo reagents (Promega Corp., Madison, WI, USA) were added to all wells according to the manufacturer's instructions, and luminescence was measured in a luminometer (PerkinElmer, Waltham, MA, USA). The experiment was repeated 3 times. Relative viability was calculated with the following formula: [% viability=(luminescence of experimental well-luminescence of background well)/(luminescence of control-luminescence of background well)×100]. The wells containing only new medium were used as background wells.
To evaluate the toxicity of the complex of anti-mPDGFR-B x cotinine scFv-Cκ-scFv bispecific antibodies and cotinine duocarmycin (cot-duo, cot-duo-cot), the complexes were added to NIH3T3 cells in the presence/absence of mPDGF-BB. The ATP of the cells was measured for relative cell viability. The toxicity of the bispecific antibody of scFv-Cκ-scFv fusion antibody was shown by IC50 in Table 6 and FIG. 5.
It was carried out in the same manner as in Example 7, except that the bispecific antibody related with the anti-mPDGFR-β antibody and the bispecific antibody related with the anti-hPDGFR-β antibody prepared in Example 10 were used. FIG. 20a to FIG. 20b are graphs showing the difference in cytotoxic activity of PRb-CN01 and PRb-CN32 bispecific antibodies and cotinine-duocarmycin complexes in the cells expressing PDGFR-β. In FIG. 20b, an experiment was repeated in the presence of mPDGF-BB.

PDGFR-β = PDGFR-β (Homo sapiens, UniProt P09619); conditions: cited from earlier work
[5] = combination of Olaratumab and doxorubicin compared to doxorubicin alone; cited from earlier work
mPDGFR-β and cotinine = molecular target: T1, mPDGFR-β and cotinine (Mus musculus, UniProt P05622); assay: Enzyme immunoassay, simultaneous binding to cotinine and mPDGFR-β; conditions: cotinine-BSA coated wells, then mPDGFR-β-Fc chimera; FIG. 3d
T1 construct: mPDGFR-β
T1 sequence (P05622 32-530): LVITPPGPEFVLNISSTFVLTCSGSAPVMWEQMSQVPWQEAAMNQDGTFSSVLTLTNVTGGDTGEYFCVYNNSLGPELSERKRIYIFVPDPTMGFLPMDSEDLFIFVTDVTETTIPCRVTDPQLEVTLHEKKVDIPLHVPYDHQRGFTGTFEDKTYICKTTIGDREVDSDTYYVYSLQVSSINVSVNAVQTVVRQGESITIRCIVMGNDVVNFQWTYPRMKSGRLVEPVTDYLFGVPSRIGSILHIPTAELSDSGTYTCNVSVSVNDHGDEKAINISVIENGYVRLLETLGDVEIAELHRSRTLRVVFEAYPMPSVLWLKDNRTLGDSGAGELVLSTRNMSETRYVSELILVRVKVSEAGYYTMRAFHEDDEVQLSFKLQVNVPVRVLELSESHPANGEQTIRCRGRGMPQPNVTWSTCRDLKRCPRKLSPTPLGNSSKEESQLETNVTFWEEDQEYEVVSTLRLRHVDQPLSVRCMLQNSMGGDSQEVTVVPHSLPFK
Protocol: In order to confirm whether the bispecific antibody has simultaneous binding ability to both cotinine and mPDGFR-β, anti-mPDGFR-β x cotinine scFv-Cκ-scFv fusion protein was reacted in wells coated with cotinine-BSA. Washing was performed for each process, and mPDGFR-β-Fc chimeric protein and HRP-anti human Fc antibody were sequentially incubated.

mPDGFR-β = molecular target: T2, mPDGFR-β (Mus musculus, UniProt P05622); assay: Competition enzyme immunoassay with mPDGF-BB; type: binding; conditions: mPDGF-BB 100 nM; FIG. 4a
T2 construct: mPDGFR-β
T2 sequence (P05622 32-530): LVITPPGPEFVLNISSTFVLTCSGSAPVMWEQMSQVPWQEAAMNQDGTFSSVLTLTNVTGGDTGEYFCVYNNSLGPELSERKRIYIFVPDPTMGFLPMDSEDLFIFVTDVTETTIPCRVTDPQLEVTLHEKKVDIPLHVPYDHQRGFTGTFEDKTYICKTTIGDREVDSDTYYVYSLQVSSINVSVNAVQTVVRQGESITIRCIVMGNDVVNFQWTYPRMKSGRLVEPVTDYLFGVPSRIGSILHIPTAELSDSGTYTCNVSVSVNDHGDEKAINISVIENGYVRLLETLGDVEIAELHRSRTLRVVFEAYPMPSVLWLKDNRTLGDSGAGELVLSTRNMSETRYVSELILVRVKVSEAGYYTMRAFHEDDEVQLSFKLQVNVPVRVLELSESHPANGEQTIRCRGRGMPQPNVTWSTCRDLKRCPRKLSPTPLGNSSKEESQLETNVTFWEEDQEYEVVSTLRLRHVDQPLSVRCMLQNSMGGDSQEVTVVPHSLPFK
Protocol: In order to confirm the competition between the bispecific antibody according to the present invention and mPDGF-BB, the microtiter plate was coated with mPDGFR-β-Fc chimera as mentioned above and then blocked. The microtiter plate was treated with various concentrations of the bispecific antibody (0.06 nM-1 μM) with or without addition of mPDGF-BB (100 nM), and then incubated at 37° C. for 2 hours. The washing, incubation, and detection were performed in the same manner as the enzyme immunoassay described above.
A competition enzyme immunoassay was developed to examine the effect of mPDGF-BB on the binding ability of anti-mPDGFR-β x cotinine scFv-Cκ-scFv fusion protein. The serially diluted bispecific antibodies (anti-mPDGFR-β scFv-Cκ-cotinine scFv) were incubated on wells coated with mPDGFR-β-Fc chimeric fusion protein with or without mPDGF-BB. HRP-anti-human Cκ antibody was incubated and then TMB was added. […] However, the binding ability of PRb-CN01 was not inhibited, so it confirmed that PRb-CN01 binds to mPDGFR-β in a noncompetitive manner to mPDGF-BB.

NIH3T3 cells [6] = assay: Internalization analysis by confocal microscopy in NIH3T3 cells; type: cell-based, mouse; conditions: 10 μg/mL, 37° C., 30 minutes, FIG. 4c
Protocol: The bispecific antibody of scFv-Cκ-scFv fusion protein was analyzed with a confocal microscope for visualizing internalization. NIH3T3 cells were treated with the bispecific antibody of scFv-Cκ-scFv (10 μg/mL) diluted in DMEM containing 10% FBS, and internalized at 37° C. for 30 minutes. After washing the cells 3 times with cold PBS, acidic buffer (0.2 M acetic acid, 0.5 M sodium chloride) was treated at room temperature for 5 minutes to remove the antibody bound to the cell surface. Cells were washed twice with cold PBS, fixed with 4% paraformaldehyde for 10 minutes, and then subjected to immunofluorescence staining as previously described [J. M. Lim et al., J. Cell. Biol. 210 (2015) 23].
Briefly, to block antibodies having non-specific reaction, cells were incubated in PBS containing 5% horse serum and 0.1% Triton X-100 for 30 minutes, and 2 μg/mL FITC-anti human Cκ antibody (TB28-2, BD Biosciences) was added at room temperature for 30 minutes. To image the initial endosomes, the cells were washed 3 times with PBS, incubated with PBS containing 5% horse serum and 0.1% Triton X-100 for 30 minutes, and then incubated with ati-RabS antibody diluted to 1:200 (C8B1, Cell Signaling Technology, Danvers, MA, USA). Alexa Fluor 546 goat anti-rabbit IgG (A-11035, Invitrogen) was sequentially treated. Cells were treated with 0.2 μg/mL DAPI to detect DNA. Confocal microscopy images were obtained using a Zeiss LSM 880 microscope, and images were analyzed with Zen software (Carl Zeiss, Thornwood, NY, USA).
To measure the cellular internalization of the bispecific antibody of scFv-Cκ-scFv, anti-mPDGFR-β x cotinine scFv-Cκ-scFv fusion protein was incubated in NIH3T3 cells, and then treated with FITC-anti-human Cκ antibody and endosome-specific antibody. It was imaged using a confocal microscope. […] When the images were merged, the present inventors confirmed that the fluorescence of the three antibody clones and the endosome-specific antibody were co-localized.

PDGFR-β, sequence (P09619 33-1106): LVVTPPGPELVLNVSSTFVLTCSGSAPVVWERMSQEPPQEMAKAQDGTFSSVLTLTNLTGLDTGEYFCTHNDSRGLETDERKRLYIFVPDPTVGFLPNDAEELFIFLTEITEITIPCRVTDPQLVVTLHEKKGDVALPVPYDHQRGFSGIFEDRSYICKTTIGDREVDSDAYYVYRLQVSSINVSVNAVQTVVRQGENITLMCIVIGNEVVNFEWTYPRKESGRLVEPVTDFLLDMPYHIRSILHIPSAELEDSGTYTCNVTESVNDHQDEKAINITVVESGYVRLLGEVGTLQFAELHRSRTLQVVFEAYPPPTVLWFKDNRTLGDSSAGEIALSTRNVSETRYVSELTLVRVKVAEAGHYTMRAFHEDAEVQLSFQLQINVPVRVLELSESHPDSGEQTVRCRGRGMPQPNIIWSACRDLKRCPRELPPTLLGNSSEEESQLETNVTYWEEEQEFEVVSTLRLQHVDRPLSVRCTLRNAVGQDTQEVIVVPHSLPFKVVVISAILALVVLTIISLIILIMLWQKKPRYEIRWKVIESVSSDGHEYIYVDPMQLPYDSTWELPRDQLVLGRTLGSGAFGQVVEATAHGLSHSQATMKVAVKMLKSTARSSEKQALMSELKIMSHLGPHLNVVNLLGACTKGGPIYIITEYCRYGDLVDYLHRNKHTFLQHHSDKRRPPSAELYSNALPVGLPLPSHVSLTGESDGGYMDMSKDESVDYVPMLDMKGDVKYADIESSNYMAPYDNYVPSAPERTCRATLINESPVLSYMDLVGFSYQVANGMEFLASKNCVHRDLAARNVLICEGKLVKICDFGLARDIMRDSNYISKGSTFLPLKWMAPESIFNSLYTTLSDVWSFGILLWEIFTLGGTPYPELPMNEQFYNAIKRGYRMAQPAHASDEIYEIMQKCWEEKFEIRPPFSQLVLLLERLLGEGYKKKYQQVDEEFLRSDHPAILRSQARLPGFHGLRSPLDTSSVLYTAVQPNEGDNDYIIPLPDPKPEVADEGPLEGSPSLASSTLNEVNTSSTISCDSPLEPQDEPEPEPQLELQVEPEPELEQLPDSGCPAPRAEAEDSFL

In the case of `CN1C(=O)CC[C@H]1c1cccnc1` [Cotinine, cotinine], the LD50 [1] is listed as 4000 ± 100 mg/kg and the adverse side effects [2] is listed as “no adverse side effects were induced”.

In the case of `COC(=O)c1cc2c([nH]1)C(=O)C=C1N(C(=O)c3cc4cc(OC)c(OC)c(OC)c4[nH]3)C[C@H]3C[C@]123` [Free duocarmycin, duocarmycin, reference compound], the weight loss [3] is listed as “induced significantly weight loss”, the IC50 (NIH3T3 cells [4]; read-out: Cot-duo IC50 (nM), complex with cot-duo (DAR4), or conjugate/free drug alone, with mPDGF-BB (2 nM)) is listed as 23.8 nM and the IC50 (NIH3T3 cells [4]; read-out: Cot-duo IC50 (nM), complex with cot-duo (DAR4), or conjugate/free drug alone, without mPDGF-BB) is listed as 9.7 nM. It also gave an IC50 (NIH3T3 cells [4]; read-out: Cot-duo-cot IC50 (nM), complex with cot-duo-cot (DAR2), or conjugate/free drug alone, with mPDGF-BB (2 nM)) of 60.3 nM and an IC50 (NIH3T3 cells [4]; read-out: Cot-duo-cot IC50 (nM), complex with cot-duo-cot (DAR2), or conjugate/free drug alone, without mPDGF-BB) of 35.7 nM.

In the case of “Olaratumab: recombinant human IgG1 antibody against PDGFR-α”, the “cross-reactivity with PDGFR-β” value (PDGFR-β) is given as “dose not cross-react with PDGFR-β” and the overall mean survival [5] is given as “significantly improved overall mean survival compared to doxorubicin alone”.

B1: PRb-CC01: anti-mPDGFR-β scFv clone (VH SEQ ID NO 15, VL SEQ ID NO 16), tested as scFv-Cκ-anti-cotinine scFv bispecific antibody (antibody, V domains shown)
VH: AVTLDESGGGLQTPGGALSLVCKGSGFTFSSYNMGWVRQAPGKGLEFVAGISAADNSTAYGAAVDGRATISRDNGQSTVRLQLNNLRAEDTATYFCIRGGGSIDAWGHGTEVIVSS
VL: LTQPSSVSANLGGTVKITCSGGGSYYGWYQQKSPGSAPVTLIYYNDKRPSDIPSRFSGSKSGSTGTLTITGVQAEDEAVYFCGAWDNSAGYAGFGAGTTLTVL
modifications: VH of PRb-CC01; VL of PRb-CC01
With B1 the “simultaneous binding to mPDGFR-β and cotinine” value (“simultaneous binding” for short) (mPDGFR-β and cotinine) was “simultaneously bound to mPDGFR-β and cotinine”, the “binding ability to mPDGFR-β in the presence of mPDGF-BB” value (shortened to “binding ability to mPDGFR-β”) (mPDGFR-β) was “inhibited in the presence of mPDGF-BB” and the cellular internalization (NIH3T3 cells [6]) was “not internalized”. The “toxicity with the addition of mPDGF-BB” value (NIH3T3 cells [4]) was “decreased with the addition of mPDGF-BB”.

B2: PRb-CC02: anti-mPDGFR-β scFv clone (VH SEQ ID NO 23, VL SEQ ID NO 24), tested as scFv-Cκ-anti-cotinine scFv bispecific antibody (antibody, V domains shown)
VH: AVTLDESGGGLQTPGGALSLVCKASGFTFSSYGMFWVRQAPGKGLEWVAGIDTGSGTNYGSAVKGRATISRDNGQSTVRLQLNNLRAEDTGTYFCTRGYAGTIDAWGHGTEVIVSSTS
VL: LTQPSSVSANPGETVKITCSGGGGSYGWYQQKSPGSAPVTVIYYNDKRPSDIPSRFSGSKSGSTGTLTITGVQAEDEAVYFCGSYNSSDSLFGAGTTLTVL
modifications: VH of PRb-CC02; VL of PRb-CC02
In the case of B2, the “simultaneous binding” value (mPDGFR-β and cotinine) is reported as “simultaneously bound to mPDGFR-β and cotinine”, the “binding ability to mPDGFR-β” value (mPDGFR-β) is reported as “inhibited in the presence of mPDGF-BB” and the cellular internalization (NIH3T3 cells [6]) is reported as “Intracellular fluorescence was detected”. The “toxicity with the addition of mPDGF-BB” value (NIH3T3 cells [4]) was “decreased with the addition of mPDGF-BB” and the “toxicity compared to control anti-HER2 x cotinine scFv-Cκ-scFv” value (NIH3T3 cells [4]) was “showed toxicity compared to the control antibody and the non-internalizing antibody (PRb-CC01), but did not show statistical significance”.

B3: PRb-CC03: anti-mPDGFR-β scFv clone (VH SEQ ID NO 31, VL SEQ ID NO 32), tested as scFv-Cκ-anti-cotinine scFv bispecific antibody (antibody, V domains shown)
VH: AVTLDESGGGLQTPGGTLSLVCKASGFTFSSYAMGWVRQAPGKGLEWVAGIDTAGGTAYGPAVKGRATISRDNGQSTVRLQLNNLRAEDTATYYCTRSSYIDTWGHGTEVIVSSTS
VL: LTQPSSVSANPGETVKITCSGGTYNYGWYQQKSPGSAPVTVIYWNDKRPSDIPSRFSGSKSGSTGTLTITGVQAEDEAVYYCGSSDSSGLIFGAGTTLTVL
modifications: VH of PRb-CC03; VL of PRb-CC03
In the case of B3, the “simultaneous binding” value (mPDGFR-β and cotinine) is reported as “simultaneously bound to mPDGFR-β and cotinine”, the “binding ability to mPDGFR-β” value (mPDGFR-β) is reported as “inhibited in the presence of mPDGF-BB” and the cellular internalization (NIH3T3 cells [6]) is reported as “Intracellular fluorescence was detected”. The “toxicity with the addition of mPDGF-BB” value (NIH3T3 cells [4]) was “decreased with the addition of mPDGF-BB” and the “toxicity compared to control anti-HER2 x cotinine scFv-Cκ-scFv” value (NIH3T3 cells [4]) was “showed toxicity compared to the control antibody and the non-internalizing antibody (PRb-CC01), but did not show statistical significance”.
